The results in this text go back to patent US20210355221A1, “Targeting the Non-Canonical NFkB Pathway in Cancer Immunotherapy” (The General Hospital Corporation, priority 2018, published 2021).

Assay [1] relates to Tumor-infiltrating CD8^+ T cells isolated from MC38 tumors. The experiment in a line: In vitro restimulation of tumor-infiltrating CD8+ T cells isolated from MC38 tumors (intracellular IFN-γ, flow cytometry). To be noted: aCD3/CD28 stimulation with IL-12 (20 ng/ml), 72 hours. It counts as cell-based, mice. Here is the method:
Tumor tissue or tumor draining lymph nodes were isolated from mice and minced using surgical scissors. Tissues were then digested using 0.2 mg/ml Collagenase II (Worthington) in RPMI 1640 media (CellGro) at 37° C. for 30 minutes and then strained through a 40 μm filter (BD Falcon). Cell suspensions were incubated with Fc Block TruStain FcX Clone 93 (Biolegend) in PBS containing 0.5% BSA and 2 mM EDTA before staining with fluorochrome labeled antibodies. Antibodies against CD11b (M1/70, Biolegend), CD8a (53-6.7, Biolegend), CD45 (30-F11, BD), F4/80 (BM8, Biolegend), CD11c (N418, Biolegend), MHC II I-A/I-E (M5/114.15.2, Biolegend), CD103 (2E7, Biolegend), IFN-γ (XMG1.2, Biolegend) were used for marker staining. 7AAD viability staining was used to exclude dead cells from analysis. Samples were run on a LSR II flow cytometer and analyzed using FlowJo software (Treestar). For intracellular cytokine staining, samples were incubated for 5 hours with GolgiPlug (BD) at 1 μl per ml of culture media. Cells were then surface stained and then fixed and permeabilized using the BD Cytofix/Cytoperm kit (BD) according to manufacturer's protocol and stained for intracellular cytokines.
MC38 tumors were digested into single cell suspensions similar to tissue processing for flow cytometry analysis and were passed through a 40 μm filter. […]
For orientation: In flow cytometry, cells or beads pass a laser one at a time.

For assay [2], the system named is IFN-γ-eYFP^+ cells. The experiment in a line: Intravital imaging of MC38 tumors in IFN-γ-eYFP reporter mice. In kind it is in vivo. As to conditions: recombinant IL-12, by day four, in the absence of aPD-1. As to the method:
Tumor bearing mice, with a tumor size of approximately 75 mm^3, were treated with 200 μg of aPD-1 and/or 100 μg of aCD40 intraperitoneally for immunotherapy studies. For combination treatment studies, both aPD-1 and aCD40 were administered at the same time. For IL-12 neutralization studies, mice were dosed with 500 μg of anti-IL-12p40 Clone 17.8 daily for 5-7 days following aPD-1 therapy. Neutralization of IFN-γ in vivo was performed by administering 1 mg of anti-IFN-γ Clone XMG1.2 initially with 500 μg of anti-IFN-γ dosed daily intraperitoneally for days 1-3. The cIAP1/2 inhibitor AZD5582 (Hennessy et al., 2013) was purchased from Selleck Chem and was resuspended in sterile saline. […]
Interferon gamma reporter (IFN-γ-eYFP) or IL-12p40 reporter (IL12p40-eYFP) mice were anesthetized and dorsal skin-fold window chambers were installed as previously described (Thurber et al., 2013) and mice were treated with analgesic (Buprenorphine 0.1 mg/kg/day) for 3 days following chamber implantation. […] Anesthetized mice were kept on a heating pad kept at 37° C., vital signs monitored and mice were imaged using an Olympus FluoView FV1000MPE confocal imaging system (Olympus America). […] Sequential scanning (5 μm slices) with 405, 473, 559, and 635 nm lasers was performed using voltage and power settings that were optimized using fluorescence minus-one control mice prior to time lapse acquisition. […]

B1: IL-12: recombinant IL-12 in mouse studies; recombinant human IL-12p70 (PeproTech) in the human ex vivo studies (protein, UniProt P29459 23-219; P29460 23-328, looked up)
Interleukin-12 subunit alpha: RNLPVATPDPGMFPCLHHSQNLLRAVSNMLQKARQTLEFYPCTSEEIDHEDITKDKTSTVEACLPLELTKNESCLNSRETSFITNGSCLASRKTSFMMALCLSSIYEDLKMYQVEFKTMNAKLLMDPKRQIFLDQNMLAVIDELMQALNFNSETVPQKSSLEEPDFYKTKIKLCILLHAFRIRAVTIDRVMSYLNAS
Interleukin-12 subunit beta: IWELKKDVYVVELDWYPDAPGEMVVLTCDTPEEDGITWTLDQSSEVLGSGKTLTIQVKEFGDAGQYTCHKGGEVLSHSLLLLHKKEDGIWSTDILKDQKEPKNKTFLRCEAKNYSGRFTCWWLTTISTDLTFSVKSSRGSSDPQGVTCGAATLSAERVRGDNKEYEYSVECQEDSACPAAEESLPIEVMVDAVHKLKYENYTSSFFIRDIIKPDPPKNLQLKPLKNSRQVEVSWEYPDTWSTPHSYFSLTFCVQVQGKSKREKKDRVFTDKTSATVICRKNASISVRAQDRYYSSSWSEWASVPCS
With B1, the “IFN-γ production by stimulated CD8^+ T cells” value in assay [1] is “substantially increased IFN-γ production”. For the same molecule, in assay [2], the “fold increase of IFN-γ-eYFP^+ cells” value is 5.9±0.7 fold.
